167 variants from the RNAGym collection of RNA variant scans (doi:10.7554/elife.90254) can be followed below.

B1: LINE1-full (parent)
chain: UACGUAGGUGGUUUUCCCCUGAUAGUGCUAAGGGGGCCUGGAAGUUUGGACUGGGCAGAGCUCAACACAGCGUGGCAAAGUGGCUGUGGCUAGACUGCCUCUCUGGAUUCCUCGUCACUCAGCAGGGCAUCUCUGAGAGAAAUGCC

The series covers variants of B1. Nature of the series: self-cleavage, relative activity (ratio to wild type); higher = more cleavage; in vitro, sequencing; the parent is a self-cleaving ribozyme.
Regarding U47G A57G, the self-cleavage is 0.62.
Turning to U47C U134C, the self-cleavage was 1.74.
Next, G49A A64U: 0.33; U47A G106C: 2.21; U47A A57C: 0.06.
Next, U47A A57U: 0.08.
Next, A50C U132C: 1.02; U46G A136G: 1.96; U46G A136U: 1.34.
Turning to U47C G82A, the self-cleavage was 2.09.
On to U47A G88U, for which the self-cleavage was 0.03.
On to U46C U132A, for which the self-cleavage came out at 2.44.
Regarding U46C U132G, the self-cleavage worked out at 1.91.
Regarding U46C U132C, the self-cleavage was 1.61.
Next, G49A U130C: 1.55; U47A U52C: 1.37.
As to U46G A117U, the self-cleavage was 2.76.
U47C A124U: the self-cleavage came to 1.68.
Next, U47C A124G: 1.59; U47C A124C: 1.31; G48U A136G: 1.19.
With U47A A77U, the self-cleavage was found to be 1.46.
As for U47A A77C, the figure is 1.6.
Next, U47C U85C: 0.24.
As for U47C U85A, the figure is 0.13.
As to U47C C51U, the self-cleavage is 1.14.
As for G48A A92G, the figure is 0.09; as for A50C U143C, 0.82.
As to G48A A140U, the self-cleavage came to 1.28.
For the variant U47G A67G, the self-cleavage stood at 0.06.
As for A50C U85C, the figure is 0.06; as for A50C U85A, 0.04; as for U47A A92G, 0.17.
Next, U47A A92U: 0.5; U47A G137U: 1.36.
As for U47C G97A, the figure is 0.59; as for U47C G97C, 1.3.
On to U46C U47G, for which the self-cleavage was 1.53.
Turning to A50C A136C, the self-cleavage came to 2.04.
As for U47C G53U, the figure is 1.3; as for G49A A124G, 0.55.
Regarding G49A A50G, the self-cleavage stood at 0.82.
For U47C C120U, the self-cleavage was 1.72.
As for G48U U108C, the self-cleavage was 1.27.
Take A50G A138U: the self-cleavage came to 0.95.
Regarding U47G U73A, the self-cleavage is 1.18.
In the case of U47A C68U, the self-cleavage is 0.13.
With A50G G53A, the self-cleavage turned out to be 1.09.
As for A50G G53U, the figure is 0; as for U47C A65U, 0.1.
As for A50G A64C, the figure is 0.37.
Turning to A50G A64G, the self-cleavage was determined as 0.42.
As for A50G A64U, the figure is 0.39; as for U46G U62C, 0.
Next, A50G C118U: 0.71.
Next, U47C A79U: 1.76; U46G U143C: 1.43.
On to G48A U52A, for which the self-cleavage was determined as 1.22.
Next, U46G U96C: 0.74.
Next, U46C U96C: 0.3; U46C U96A: 0.08.
Next, G49A A65U: 0.04; G48A A78G: 1.21; U47C A77C: 0.34.
Consider U47C C84A, for which the self-cleavage came out at 0.15.
U47A A124G: the self-cleavage turned out to be 0.79.
Next, G48A U130C: 1.53; U47C U87C: 0.48; A50G A140G: 0.94.
As for A50G A140U, the figure is 0.93; as for U46G G114A, 1.18; as for U47C A94G, 0.51.
Take U47C A129U: the self-cleavage came to 1.74.
As for G48A U81C, the figure is 1.14; as for G48U U134C, 1.14.
Turning to U47C C128A, the self-cleavage came to 0.73.
Next, U47A A79U: 1.64; U47A A79G: 1.05.
For A50G A107G, the self-cleavage stood at 1.1.
In the case of G48A A124U, the self-cleavage was 1.02.
For G48A A124G, the self-cleavage came to 0.92.
Regarding U47C U100C, the self-cleavage worked out at 2.49.
Next, U47A U109C: 1.19; G48U U132C: 1.12.
Turning to U47A C90U, the self-cleavage came to 0.03.
In the case of U47G U62A, the self-cleavage was 0.03.
As for G49A U85C, the figure is 0.1; as for U47C C71A, 0.68; as for U47A A142G, 1.4.
On to U47C G72U, for which the self-cleavage turned out to be 2.51.
With U46C U91G, the self-cleavage was 0.09.
As for U46C U91C, the figure is 0.99; as for U47G U130A, 1.23; as for G48U U52A, 0.81.
Take U46G G60C: the self-cleavage is 0.
Next, U47A U102C: 1.19; U47A U102A: 1.35; A50G A124U: 0.79.
Next, A50G A124G: 0.51.
Next, G49U A142G: 0.85; U47C C76U: 1.77; G48C A142G: 1.38.
As to G49U A78G, the self-cleavage worked out at 0.91.
For the variant G49A U52C, the self-cleavage was found to be 1.35.
As for U47A U100G, the figure is 1.93; as for U47C A136G, 0.99.
Next, U47G A142G: 1.33.
For U47A U87A, the self-cleavage was 0.11.
Next, A50G A78C: 0; U46C U109A: 1.41; U47A U81C: 1.57.
As for G48U U109A, the self-cleavage was 1.42.
Next, U47A U134C: 1.39; U47G U143C: 1.31; G48A U85A: 0.05.
Next, G48A U85C: 0.1; G48A A50G: 0.53; G49U U143C: 0.84.
As to G49U C95G, the self-cleavage was 0.04.
On to G49U U134C, for which the self-cleavage is 1.63.
Next, G49U U134A: 1.19; U47A A138G: 1.39; G48A U100C: 1.9.
As for U47C G144A, the figure is 1.44; as for U47C A141G, 1.51; as for U46C U73C, 2.17.
For the variant U46C U73A, the self-cleavage amounted to 1.68.
As for A50C U91C, the figure is 0.48; as for U47C C131U, 1.91; as for U47C G55A, 0.65.
With U47A A67G, the self-cleavage worked out at 0.38.
Turning to G48A U109A, the self-cleavage was 2.18.
As for G48A A79G, the figure is 1.43; as for U47A A59G, 0.05.
For U47C C95A, the self-cleavage came out at 0.09.
G49A U112C: the self-cleavage is 1.45.
In the case of U47C A117U, the self-cleavage amounted to 1.33.
Regarding U47C A117G, the self-cleavage is 1.81.
U47C C90G: the self-cleavage stood at 0.04.
Next, A50C A64G: 0.63.
In the case of A50C A64U, the self-cleavage was 0.4.
As to G49A U115C, the self-cleavage worked out at 1.33.
Next, A50G A57G: 0.32; A50G A57U: 0.14; U47C U104A: 1.23.
On to U47C U104C, for which the self-cleavage is 2.24.
In the case of U47C U104G, the self-cleavage came to 1.2.
Next, G49U U62C: 0.08; U47A C110U: 0.95; A50G A59U: 0.84.
A50G A59G: the self-cleavage was found to be 0.26.
Next, G48U G125A: 1.17; U47A A78U: 2.04.
On to U47A A78G, for which the self-cleavage was determined as 0.29.
With U46G U73C, the self-cleavage was 1.02.
As for G49A U108C, the figure is 1.54; as for U47C A69C, 0.07; as for U47C A69U, 0.06.
As to U47C G89U, the self-cleavage is 0.04.
Next, U47A A64U: 0.44; U47A A64C: 0.25.
As for U47C G74C, the figure is 1.61; as for U47C, 1.47.
As for U47G, the figure is 1.14; as for U47A, 1.22; as for G48A A129U, 1.13.
On to U46C U85A, for which the self-cleavage was determined as 0.14.
